In the data set the test system is Nc1nc(=O)[nH]cc1F. Put plainly: steady-state kinetics. Type of data set: biochemical, Saccharomyces cerevisiae. The conditions noted are these: Zn2+.

Turning to “yeast cytosine deaminase (yCD) (Saccharomyces cerevisiae S288C; E64A)”, the Km amounted to 33 ± 6 mM, the kcat came to 7.3e-05 ± 6e-06 s⁻¹ and the kcat/Km amounted to 0.0022 M⁻¹ s⁻¹.
For “yeast cytosine deaminase (yCD) (Saccharomyces cerevisiae S288C; E64D)”, the Michaelis constant (Km) stood at 19 ± 6 mM, the kcat is 0.0051 ± 0.001 s⁻¹ and the kcat/Km came to 0.26 M⁻¹ s⁻¹.

In general, Km refers to the concentration of substrate that gives half-maximal velocity. As a reminder, the kcat is the number of substrate molecules converted per active site and unit of time at saturation. Usually kcat/Km stands for the turnover number divided by the Michaelis constant.

For the origin of these results see article PMC3272785.
